Data taken from patent US20210269480A1 (published 2021).
*1 amine or outer side, *2 acyl side, *3 side chain or, on linkers, in order; H or OH if unused. Bridges are numbered along the chain shown (N, C = ends). Where no end group is shown, it is not given here. [ ]: non-standard residue; d: D form. TATA = O=C(CC[*:1])N1CN(C(=O)CC[*:2])CN(C(=O)CC[*:3])C1; 1Nal = N[C@@H](Cc1cccc2ccccc12)C(=O)O; 2Nal = N[C@@H](Cc1ccc2ccccc2c1)C(=O)O; NMehArg = CN[C@@H](CCCCNC(=N)N)C(=O)O; Hyp = O=C(O)[C@@H]1C[C@@H](O)CN1; NMeI = CC[C@H](C)[C@H](NC)C(=O)O; NMeT = CN[C@H](C(=O)O)[C@@H](C)O; dCya = N[C@H](CS(=O)(=O)O)C(=O)O; hArg = N=C(N)NCCCC[C@H](N)C(=O)O; NMeN = CN[C@@H](CC(N)=O)C(=O)O; Agb = N=C(N)NCC[C@H](N)C(=O)O; Nle = CCCC[C@H](N)C(=O)O

Biological target: T1, human Nectin-4 (human, UniProt Q96NY8 32-349)
T1 construct: a Gly32-Ser349 FLAG construct is described only under the SPR assay; also called PVRL4
T1 sequence (looked up): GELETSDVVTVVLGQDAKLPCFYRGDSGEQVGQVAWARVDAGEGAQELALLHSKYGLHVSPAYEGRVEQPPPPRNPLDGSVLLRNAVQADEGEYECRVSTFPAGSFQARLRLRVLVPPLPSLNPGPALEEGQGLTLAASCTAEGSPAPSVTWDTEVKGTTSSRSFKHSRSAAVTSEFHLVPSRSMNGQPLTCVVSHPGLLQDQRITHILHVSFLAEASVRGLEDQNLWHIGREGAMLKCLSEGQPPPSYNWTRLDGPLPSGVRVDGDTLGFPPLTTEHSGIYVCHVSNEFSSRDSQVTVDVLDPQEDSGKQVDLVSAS
Assay: FP competition, tracer SEQ ID NO 217
Method: Peptides were diluted to an appropriate concentration in assay buffer as described in the direct binding assay with a maximum of 5% DMSO, then serially diluted 1 in 2. […] Measurements were conducted as for the direct binding assay, however the gain was determined prior to the first measurement. Data analysis was in Systat Sigmaplot version 12.0 where the mP values were fit to a user defined cubic equation to generate a Ki value: […]

Binder: ACPFGCMSDWSWPIWCSTD (linker 2-6-16 via TATA) [BCY3399]
- Ki: 410 nM

Binder: QK(Ac)WCAPLSDYWCNRICA (linker 4-12-16 via TATA) [BCY7280]
- Ki: 219 nM

Binder: Ac-CP[1Nal][dR]CM[Agb]DWSTP[Hyp]WC (linker 1-5-15 via TATA) [BCY8192]
- Ki: 5 nM

Binder: [dH]DSCPFGCMKSWSWPIWCA (linker 4-8-18 via TATA) [BCY7272]
- Ki: 41 nM

Binder: Ac-CP[1Nal][dR]CMPDWSTP[Hyp]WC (linker 1-5-15 via TATA) [BCY8193]
- Ki: 3 nM

Binder: DSECPFGCMSGWSWPIWCA (linker 4-8-18 via TATA) [BCY3389]
- Ki: 99.8 nM

Binder: ACPFGCM[hArg]NWSWPIWCTNK (linker 2-6-16 via TATA) [BCY7265]
- Ki: 38.3 nM

Binder: ACPFGCMKNWSWPIWCTN[hArg] (linker 2-6-16 via TATA, also called 80-09-02-T01-N003) [BCY7281]
- Ki: 22.9 nM

Binder: HDACPFGCMEGWSWPIWCA (linker 4-8-18 via TATA) [BCY3390]
- Ki: 302 nM

Binder: QKWCAPLSDYWCN[hArg]ICA (linker 4-12-16 via TATA) [BCY7279]
- Ki: 44.4 nM

Binder: ACPFGCIKSWSWPIWCQME (linker 2-6-16 via TATA) [BCY3397]
- Ki: 33.2 nM

Binder: Ac-CP[1Nal][dR]CM[Hyp]DWSTP[Hyp]WC (linker 1-5-15 via TATA) [BCY8194]
- Ki: 3.5 nM

Binder: ACPFGCQEDWSWPIWCLSE (linker 2-6-16 via TATA) [BCY3398]
- Ki: 164 nM

Binder: HDSCPFGCMKSWSWPIWCA (linker 4-8-18 via TATA) [BCY3393]
- Ki: 173 nM

Binder: ACWPLDDYWCPRICPQA (linker 2-10-14 via TATA) [BCY3401]
- Ki: 154 nM

Binder: ACPFGCMXNWSWPIWCTNK (core CPFGCM[K(Ac)]NWSWPIWC; TATA on 3 Cys) [BCY7266]
- Ki: 41 nM

Binder: ACPFGCQEHWSWPIWCTTA (linker 2-6-16 via TATA) [BCY3396]
- Ki: 102 nM

Binder: Ac-CP[1Nal][dD]CM[hArg]HWSTP[Hyp]WC (linker 1-5-15 via TATA) [BCY8125]
- Ki: 3.1 nM

Binder: Ac-CP[1Nal][dR]CM[hArg]NWSTP[Hyp]WC (linker 1-5-15 via TATA) [BCY8128]
- Ki: 2.2 nM

Binder: Ac-CP[1Nal][dR]CM[hArg]HWSTP[Hyp]WC (linker 1-5-15 via TATA) [BCY8129]
- Ki: 3.1 nM

Binder: Ac-CP[1Nal][dR]CM[hArg]DWTTP[Hyp]WC (linker 1-5-15 via TATA) [BCY8187]
- Ki: 5 nM

Binder: Ac-CP[1Nal][dD]CL[hArg]DWSTP[Hyp]WC (linker 1-5-15 via TATA) [BCY8212]
- Ki: 3 nM

Binder: Ac-CP[1Nal][dD]CM[hArg]DWDTP[Hyp]WC (linker 1-5-15 via TATA) [BCY8174]
- Ki: 12.3 nM

Binder: Ac-CP[1Nal][dD]CM[hArg]DWTTP[Hyp]WC (linker 1-5-15 via TATA) [BCY8176]
- Ki: 3.5 nM

Binder: Ac-CP[1Nal][dR]CM[hArg]DWSSP[Hyp]WC (linker 1-5-15 via TATA) [BCY8191]
- Ki: 4.5 nM

Binder: Ac-CP[1Nal][dR]CL[hArg]DWSTP[Hyp]WC (linker 1-5-15 via TATA) [BCY8213]
- Ki: 3.5 nM

Binder: Ac-CP[1Nal][dD]CM[hArg]DWSSP[Hyp]WC (linker 1-5-15 via TATA) [BCY8180]
- Ki: 3 nM

Binder: Ac-CP[1Nal][dR]CM[hArg]DWDTP[Hyp]WC (linker 1-5-15 via TATA) [BCY8185]
- Ki: 26.1 nM

Binder: Ac-CP[1Nal][dR]CL[hArg]HWSTP[Hyp]WC (linker 1-5-15 via TATA) [BCY8214]
- Ki: 6.3 nM

Binder: MDTCPFGCMEDWSWPIWCA (linker 4-8-18 via TATA) [BCY3391]
- Ki: 198 nM

Binder: Q[hArg]WCAPLSDYWCNRICA (linker 4-12-16 via TATA) [BCY7278]
- Ki: 69 nM

Binder: ACPFGCMKNWSAPIWCTNK (linker 2-6-16 via TATA, also called 80-09-02-T01-N012) [BCY7342]
- Ki: 310 nM

Binder: ACPFGCMKNWSWPAWCTNK (linker 2-6-16 via TATA, also called 80-09-02-T01-N014) [BCY7344]
- Ki: 39.8 nM

Binder: ACPFGCMKNWSWPIWCTAK (linker 2-6-16 via TATA, also called 80-09-02-T01-N017) [BCY7347]
- Ki: 36.1 nM

Binder: ACPFGCMKNWSWPIWCTNA (linker 2-6-16 via TATA, also called 80-09-02-T01-N018) [BCY7348]
- Ki: 20.6 nM

Binder: ACPFGCMKNWSWPIWCANK (linker 2-6-16 via TATA, also called 80-09-02-T01-N016) [BCY7346]
- Ki: 64.9 nM

Binder: HDSCPFGC[Nle]KSWSWPIWCA (linker 4-8-18 via TATA) [BCY7274]
- Ki: 90.5 nM

Binder: ACPFGCMKTWSWPIWCTDK (linker 2-6-16 via TATA) [BCY3394]
- Ki: 102 nM

Binder: Ac-CPF[dD]CM[hArg][NMeN]WSTPIWC (linker 1-5-15 via TATA) [BCY8154]
- Ki: 8 nM

Binder: HDSCPFGCMK(Ac)SWSWPIWCA (linker 4-8-18 via TATA) [BCY7273]
- Ki: 84 nM

Binder: Ac-CPF[dD]CM[NMehArg]NWSTPIWC (linker 1-5-15 via TATA) [BCY8153]
- Ki: 35 nM

Binder: Ac-CPF[dD]CM[hArg]NWSTP[NMeI]WC (linker 1-5-15 via TATA) [BCY8158]
- Ki: 177 nM

Binder: Ac-CP[2Nal][dR]CM[hArg]DWSTP[Hyp]WC (linker 1-5-15 via TATA) [BCY8186]
- Ki: 6 nM

Binder: Ac-CP[1Nal][dD]CMPDWSTP[Hyp]WC (linker 1-5-15 via TATA) [BCY8182]
- Ki: 2 nM

Binder: DPGCPFGCMPGWSWPIWCA (linker 4-8-18 via TATA) [BCY3392]
- Ki: 36.3 nM

Binder: HDSCPFGCM[hArg]SWSWPIWCA (linker 4-8-18 via TATA) [BCY7275]
- Ki: 43.3 nM

Binder: Ac-CP[1Nal][dR]CM[hArg]DWSTP[Hyp]WC (linker 1-5-15 via TATA) [BCY8184]
- Ki: 3.2 nM

Binder: ACPFGCMKGWSWPIWCLKD (linker 2-6-16 via TATA) [BCY3395]
- Ki: 17.4 nM

Binder: Ac-CP[1Nal][dCya]CM[hArg]DWSTP[Hyp]WC (linker 1-5-15 via TATA) [BCY8163]
- Ki: 3 nM

Binder: Ac-CPF[dD]CM[hArg]NWS[NMeT]PIWC (linker 1-5-15 via TATA) [BCY8157]
- Ki: 5 nM

Binder: HDSCPFGCM[dK]SWSWPIWCA (linker 4-8-18 via TATA) [BCY7276]
- Ki: 326 nM
